Experimental data: publication PMC8564274 (Signal Transduction and Targeted Therapy, 2021)

Assays:
[1] = target: T1, prefusion-stabilized ectodomain of the SARS-CoV-2 spike (SARS-CoV-2, WH01, stabilised); assay: BLI; conditions: both partners purified
[2] = target: T1, prefusion-stabilized ectodomain of the …; assay: cell-based or functional assay

B1: n3113.1 (VHH)
VHH: EVQLVESGGGLVQPGGSLRLSCAASDSSFYDYEMSWVRQAPGKAQEWIGSMYPSGRTYINPSLKSLVTISRDNSKNTLYLQLNSLRAEDTAMYYCVSNWASGSTGDYWGQGTLVTVSS
- Kd [1]: 63.8 nM
- IC50 of neutralisation of SARS-CoV-2 S pseudovirus [2]: 6 µg/mL
